Data reported in patent US20200332017A1 (SALUBRIS CHENGDU BIOTECH, published 2020).
Values belong to the binder of their own block, whether it stands above or below them.

Experiments:
[1] = target: T1, Human CD40-his protein (Acro biosystems, Cat # CD0-H5228) (human, UniProt P25942 21-193); experiment: SPR, Biacore; human CD40-his
T1 construct: Bought reagent; not shown: his tag
Excerpt: Briefly, goat anti-mouse IgG (GE healthcare, Cat # BR100838, Mouse Antibody Capture Kit) was covalently linked to a CM5 or a Protein G chip (carboxy methyl dextran coated chip) via primary amines, using a standard amine coupling kit provided by Biacore (GE healthcare, Pittsburgh, Pa., USA). Un-reacted moieties on the biosensor surface were blocked with ethanolamine. […] Then, human CD40-his (Acro biosystems, Cat # CD0-H5228) or cynomolgus monkey CD40-his protein (Acro biosystems, Cat # CD0-052H6) in HBS EP buffer (provided by Biacore) was flowed onto the chip at a flow rate of 30 μL/min. The antigen-antibody association kinetics was followed for 2 minutes and the dissociation kinetics was followed for 10 minutes. The association and dissociation curves were fit to a 1:1 Langmuir binding model using BIA evaluation software.

[2] = target: T2, full length human CD40 (uniprot # P25942-1) on the membrane of 293T-CD40 cells (human, UniProt P25942 21-277); experiment: flow cytometry on 293T-CD40 cells
T2 construct: also called cell surface CD40
Procedure: 2×10⁵ cells per well in 96 well-plates were incubated with the mouse anti-CD40 antibodies or the controls of various concentrations in FACS buffer for 40 minutes on ice. […] Following an incubation of 40 minutes at 4° C. in dark, cells were washed three times and resuspended in FACS buffer. Fluorescence was measured using a Becton Dickinson FACS Canto II-HTS equipment and plotted against antibody concentration.

[3] = target: T3, human CD40-Fc protein (amino acid residue 21-193 of SEQ ID NO: 67 linked to N-terminus of amino acid residue … (human, biotin-labeled in the capture ELISA and in the benchmark blocking ELISA; unlabeled when coated in the ligand blocking ELISA); experiment: capture ELISA, biotin human CD40-Fc; mAb at 80 ng/mL
T3 construct: also called biotin-labeled human CD40-Fc; human CD40-Fc-biotin
Procedure: (§1) Plates were washed 4 times with wash buffer (PBS+0.05% Tween-20, PBST) and then blocked with 200 μl/well blocking buffer (5% w/v non-fatty milk in PBST) for 2 hours at 37° C. […] After a final wash, plates were incubated with 100 μl/well ELISA substrate TMB (Innoreagents, Cat # TMB-S-002). The reaction was stopped in 15 minutes at 25° C. with 50 μl/well 1M H₂SO₄, and the absorbance was read at 450 nm and plotted against antibody concentration. Data were analyzed using Graphpad Prism software and EC₅₀ values were reported.

[4] = target: T3, human CD40-Fc protein (amino acid …); experiment: capture ELISA, biotin human CD40-Fc; mAb at 2000 ng/mL
Procedure: as §1

[5] = target: T3, human CD40-Fc protein (amino acid …); experiment: capture ELISA, biotin human CD40-Fc; mAb at 10000 ng/mL
Procedure: as §1

[6] = target: T3, human CD40-Fc protein (amino acid …); experiment: capture ELISA, biotin human CD40-Fc; mAb at 0 ng/mL (blank)
Procedure: as §1

[7] = target: T3, human CD40-Fc protein (amino acid …); experiment: capture ELISA; antibody captured, biotin-labeled human CD40-Fc in solution
Procedure: as §1
(§2) In the capture ELISA test, a mouse control antibody targeting a protein other than CD40 was used.

[8] = target: T3, human CD40-Fc protein (amino acid …); experiment: competitive ELISA; coated human CD40-Fc, competitor biotin human CD40L-his
Procedure: Briefly, human CD40-Fc proteins (amino acid residue 21-193 of SEQ ID NO: 67 linked to N-terminus of amino acid residue 99-330 of SEQ ID NO.: 24) were coated on 96-well micro plates at 2 μg/mL in coating buffer (PBS) and incubated overnight at 4° C. The next day, plates were washed with wash buffer (PBS+0.05% Tween-20, PBST), and blocked with 5% w/v non-fatty milk in PBST for 2 hours at 37° C. Plates were then washed again using wash buffer.
Serially diluted the mouse anti-CD40 antibodies of the present invention or the controls (starting at 200 nM with a four-fold serial dilution) in 2.5% w/v non-fatty milk in PBST were prepared to the plates and incubated with the human CD40-Fc proteins at room temperature for 40 minutes. […] Plates were washed again. 100 μl/well of streptavidin conjugated HRP was added and incubated for 40 minutes at 37° C. Plates were washed again using wash buffer. Finally, TMB was added and the reaction was stopped using 1M H₂SO₄, and the absorbance was read at 450 nm. Data were analyzed using Graphpad Prism software and IC₅₀ values were reported.
as §2

[9] = target: T3, human CD40-Fc protein (amino acid …); experiment: competitive ELISA; biotin human CD40-Fc in solution, competitor coated BM2
Procedure: The ability of the mouse anti-CD40 antibodies of the present invention to block the binding of the Benchmark to human CD40 was measured using a competitive ELISA assay. […] The next day, plates were washed with wash buffer, and blocked with 5% w/v non-fatty milk in PBST for 2 hours at 37° C. Plates were then washed again using wash buffer. […] After incubation at 37° C. for 40 minutes, plates were washed 4 times using wash buffer. Then streptavidin conjugated HRP was added and incubated for 40 minutes at 37° C. to detect biotin-labeled human CD40-Fc bound to plates. Plates were washed again using wash buffer. Finally, TMB was added and the reaction was stopped using 1M H₂SO₄, and the absorbance was read at 450 nm. Data were analyzed using Graphpad Prism software and IC₅₀ values were reported.

Kd [1]: 3.62 nM
EC50 [2]: 1.86 nM
absorbance at 450 nm [3]: 1.48 OD450
absorbance at 450 nm [4]: 1.75 OD450
absorbance at 450 nm [5]: 1.81 OD450
absorbance at 450 nm [6]: 0.124 OD450
EC50 [7]: 0.192 nM
IC50 [8]: 5.4 nM
IC50 [9]: 0.461 nM
B1: mouse anti-CD40 monoclonal antibody C1C1 (antibody, V domains shown)
VH: EVKLVESGGGLVKPGASLKLSCAASGFTFSNYGMSWVRQNSDKRLEWVASISSGGDDTYYPDNVKGRCTISRENAKNTLYLEMSSLKTEDTALYYCTRAGGKAMDYWGQGTSVTVST
VL: DIVLTQSPATLSVIPGNSVSLSCRASQSIRDNLHWYQQKSHESPRLLINYASQSISGIPSRFSGSGSGTDFTLTINSVETEDFGIYFCQQFNSWPLTFGGGTKLELK
notes: those are used here for the chimeric antibody only; also called Mouse C1C1; mouse C1C1

Kd [1]: 5.98 nM
EC50 [2]: 1.82 nM
absorbance at 450 nm [3]: 1.17 OD450
absorbance at 450 nm [4]: 1.83 OD450
absorbance at 450 nm [5]: 1.96 OD450
absorbance at 450 nm [6]: 0.028 OD450
EC50 [7]: 0.24 nM
IC50 [8]: 4.83 nM
IC50 [9]: 0.126 nM
B2: chimeric antibody C1C1 (antibody, human IgG1, kappa, V domains shown)
VH: B1 VH
VL: DIVLTQSPATLSVIPGNSVSLSCRASQSIRDNLHWYQQKSHESPRLLINYASQSISGIPSRFSGSGSGTDFTLTINSVETEDFGIYFCQQFNSWPLTFGGGTKLELKR
notes: also called chC1C1; chimeric C1C1
